Experiment [1] addresses GFP-FOXM1(688-748) (human). As to the kind of experiment: MST; GFP-fused FOXM1 protein as the fluorescent partner, synthesized peptide varied from 0.030 to 1000 µM; PBST (1×PBS 0.01 M, 0.05% Tween-20); 25 °C; Monolith NT.115, LED power 60%, medium MST power.
The target in experiment [2] is endogenous FOXM1 protein (human (endogenous in 293T and MDA-MB-231)) (UniProt Q08050).
Experiment [3] shares this target. The source holds these as a separate data set.
A further experiment deals with GFP-FOXM1 (human) (UniProt Q08050). The experiment in a line: MST; GFP-fused FOXM1 protein as the fluorescent partner, synthesized peptide varied from 0.030 to 1000 µM; PBST (1×PBS 0.01 M, 0.05% Tween-20); 25 °C; Monolith NT.115, LED power 60%, medium MST power.

pKd: −log10 of the molar value.

Chain of endogenous FOXM1 protein (human (endogenous in 293T and MDA-MB-231)) (Q08050 whole entry): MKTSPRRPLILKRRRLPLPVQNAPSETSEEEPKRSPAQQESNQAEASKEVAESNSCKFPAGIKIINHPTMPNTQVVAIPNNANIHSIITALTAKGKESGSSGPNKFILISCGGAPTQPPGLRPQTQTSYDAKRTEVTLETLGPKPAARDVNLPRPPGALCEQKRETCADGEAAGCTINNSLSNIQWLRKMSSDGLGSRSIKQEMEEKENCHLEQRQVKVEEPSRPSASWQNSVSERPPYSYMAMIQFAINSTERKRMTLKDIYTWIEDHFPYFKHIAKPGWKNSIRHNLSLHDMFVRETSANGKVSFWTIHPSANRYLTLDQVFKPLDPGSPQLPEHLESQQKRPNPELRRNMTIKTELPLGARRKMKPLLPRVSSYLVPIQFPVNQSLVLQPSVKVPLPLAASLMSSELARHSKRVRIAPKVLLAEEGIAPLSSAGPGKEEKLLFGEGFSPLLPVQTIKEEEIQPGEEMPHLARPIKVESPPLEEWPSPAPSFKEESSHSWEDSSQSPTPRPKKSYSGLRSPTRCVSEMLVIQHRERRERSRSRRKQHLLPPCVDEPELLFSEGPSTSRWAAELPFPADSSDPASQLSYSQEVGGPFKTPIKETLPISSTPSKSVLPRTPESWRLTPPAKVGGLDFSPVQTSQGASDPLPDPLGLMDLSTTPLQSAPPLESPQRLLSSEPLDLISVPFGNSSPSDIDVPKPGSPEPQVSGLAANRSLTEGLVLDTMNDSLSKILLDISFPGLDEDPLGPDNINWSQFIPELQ
Chain of GFP-FOXM1 (human) (Q08050 other isoform, or with tags, fused parts or gaps): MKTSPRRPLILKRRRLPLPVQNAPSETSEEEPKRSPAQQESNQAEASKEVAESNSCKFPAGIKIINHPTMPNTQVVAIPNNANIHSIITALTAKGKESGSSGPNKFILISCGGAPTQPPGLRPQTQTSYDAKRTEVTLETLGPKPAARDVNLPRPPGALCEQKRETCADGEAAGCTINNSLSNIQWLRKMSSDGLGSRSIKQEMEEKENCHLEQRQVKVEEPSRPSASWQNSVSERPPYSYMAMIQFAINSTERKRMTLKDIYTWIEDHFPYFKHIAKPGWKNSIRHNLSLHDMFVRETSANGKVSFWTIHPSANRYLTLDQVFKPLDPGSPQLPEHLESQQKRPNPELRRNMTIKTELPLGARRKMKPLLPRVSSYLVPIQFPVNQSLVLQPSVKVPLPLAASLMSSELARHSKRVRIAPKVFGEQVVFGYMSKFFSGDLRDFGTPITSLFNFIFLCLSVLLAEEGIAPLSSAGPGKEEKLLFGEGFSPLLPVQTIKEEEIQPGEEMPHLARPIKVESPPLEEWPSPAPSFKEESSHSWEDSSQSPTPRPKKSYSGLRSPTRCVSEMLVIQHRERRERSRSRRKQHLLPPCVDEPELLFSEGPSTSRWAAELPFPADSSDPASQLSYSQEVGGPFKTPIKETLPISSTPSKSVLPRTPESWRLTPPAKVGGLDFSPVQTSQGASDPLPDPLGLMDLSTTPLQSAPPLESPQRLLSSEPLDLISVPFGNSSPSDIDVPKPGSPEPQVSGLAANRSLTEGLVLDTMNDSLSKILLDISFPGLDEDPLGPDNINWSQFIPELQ

With “TAT-96-116 (from UniProt Q08050 96-116) (peptide)”, the pKd (commonly the Kd on a negative log10 scale, so that one unit is a factor of ten) in experiment [1] was 5.55.

“TAT-101-121 (from UniProt Q08050 101-121) (peptide)” showed a negative logarithm of the Kd (pKd) in experiment [1] of 5.26.

In turn, “TAT-106-126 (from UniProt Q08050 106-126) (peptide)” yielded an IC50 of cell viability, MDA-MB-231 cells, 48 h (trypan blue; Fig. 2C) in experiment [2] of 54.3 µM. The same substance showed an IC50 of cell viability, MDA-MB-231 cells, 48 h (trypan blue) in experiment [3] of 53.4 µM. The negative logarithm of the Kd (pKd) in experiment [1] is 5.41; with GFP-FOXM1 (human), 5.15.
